Laboratory results reported in US20170209564A1.

What was measured:
[1] = biological target: FL HA H1N1 (influenza A virus H1N1); assay: SEC-MALS of FL HA with Fab; theoretical value for trimer with 3 Fabs in brackets
[2] = biological target: T1, sH1 mini-HA GW1.5E2-FFH (Influenza A virus H1N1 A/Brisbane/59/2007); assay: SEC-MALS with Fab fragments; conditions: remark: other sources report otherwise
sH1 mini-HA GW1.5E2-FFH = conditions: remark: other sources report otherwise
s6E12 = assay: SEC-MALS of polypeptide with Fab; conditions: remark: other sources report otherwise
s127H1 = assay: SEC-MALS of polypeptide with Fab; conditions: remark: other sources report otherwise
s55G7 = assay: SEC-MALS of polypeptide with Fab; conditions: remark: other sources report otherwise
s74H9 = assay: SEC-MALS of polypeptide with Fab; conditions: remark: other sources report otherwise
s86B4 = assay: SEC-MALS of polypeptide with Fab; conditions: remark: other sources report otherwise
[3] = biological target: T1, sH1 mini-HA GW1.5E2-FFH (Influenza A …); assay: biolayer interferometry (Octet), apparent Kd; CR6261; conditions: remark: other sources report otherwise

Fab fragment of CR9114
Mw of protein in complex with CRF9114, observed [1]: 343 kDa

Fab fragment of CR6261
Mw of protein in complex with CRF6261, observed [1]: 396 kDa

B1: Fab fragment of CR6261 (Fab, V domains shown)
VH: EVQLVESGAEVKKPGSSVKVSCKASGGPFRSYAISWVRQAPGQGPEWMGGIIPIFGTTKYAPKFQGRVTITADDFAGTVYMELSSLRSEDTAMYYCAKHMGYQVRETMDVWGKGTTVTVSS
VL: QSVLTQPPSVSAAPGQKVTISCSGSSSNIGNDYVSWYQQLPGTAPKLLIYDNNKRPSGIPDRFSGSKSGTSATLGITGLQTGDEANYYCATWDRRPTAYVVFGGGTKLTVLG
Fab fragments bound per trimer (Fab fragments per trimer) [2]: 3
Mw of protein in complex with CRF6261, observed (sH1 mini-HA GW1.5E2-FFH): 201 kDa
MW complex with CR6261, observed (s6E12): 67 kDa
MW complex with CR6261, observed (s127H1): 74 kDa
MW complex with CR6261, observed (s55G7): 66 kDa
MW complex with CR6261, observed (s74H9): 72 kDa
MW complex with CR6261, observed (s86B4): 75 kDa

B2: monoclonal antibody CR6261 (antibody, V domains shown)
VH: B1 VH
VL: B1 VL
Kd [3]: 1 nM
